Test results from US20240093191A1, “COMPOSITIONS AND METHODS FOR TREATING DISEASE ASSOCIATED WITH DUX4 OVEREXPRESSION” (RESEARCH INSTITUTE AT NATIONWIDE CHILDREN'S HOSPITAL, priority 2021, published 2024).

B1: U6.mi405F: mi405 with one G at 5' end and 16 mer 3' flanking sequence with single CNNC motif (nucleic acid)
DNA: ACGCCGCCATCTCTAGGCCCGCGCCGGCCCCCTCGCACAGACTTGTGGGAGAAGCTCGGCTACTCCCCTGCCCCGGTTAATTTGCATATAATATTTCCTAGTAACTATAGAGGCTTAATGTGCGATAAAAGACAGATAATCTGTTCTTTTTAATACTAGCTACATTTTACATGATAGGCTTGGATTTCTATAAGAGATACAAATACTAAATTATTATTTTAAAAAACAGCACAAAAGGAAACTCACCCTAACTGTAAAGTAATTGTGTGTTTTGAGACTATAAATATCCCTTGGAGAAAAGCCTTGTTTGCTCGAGTGAGCGATCCAGGATTCAGATCTGGTTTCTGTAAAGCCACAGATGGGAAACCAGATCTGAATCCTGGACTGCCTACTAGTAATTCTTCGATTCTGCTTTTTT
B2: U6.mi405H: mi405 construct with altered flanking sequences (nucleic acid)
DNA: ACGCCGCCATCTCTAGGCCCGCGCCGGCCCCCTCGCACAGACTTGTGGGAGAAGCTCGGCTACTCCCCTGCCCCGGTTAATTTGCATATAATATTTCCTAGTAACTATAGAGGCTTAATGTGCGATAAAAGACAGATAATCTGTTCTTTTTAATACTAGCTACATTTTACATGATAGGCTTGGATTTCTATAAGAGATACAAATACTAAATTATTATTTTAAAAAACAGCACAAAAGGAAACTCACCCTAACTGTAAAGTAATTGTGTGTTTTGAGACTATAAATATCCCTTGGAGAAAAGCCTTGTTTGACCGTTTAAACTCGAGTGAGCGATCCAGGATTCAGATCTGGTTTCTGTAAAGCCACAGATGGGAAACCAGATCTGAATCCTGGACTGCCTACTAGAGCGCACGCCAGTTTTTT
B3: U6.mi405G: mi405 construct with altered flanking sequences (nucleic acid)
DNA: ACGCCGCCATCTCTAGGCCCGCGCCGGCCCCCTCGCACAGACTTGTGGGAGAAGCTCGGCTACTCCCCTGCCCCGGTTAATTTGCATATAATATTTCCTAGTAACTATAGAGGCTTAATGTGCGATAAAAGACAGATAATCTGTTCTTTTTAATACTAGCTACATTTTACATGATAGGCTTGGATTTCTATAAGAGATACAAATACTAAATTATTATTTTAAAAAACAGCACAAAAGGAAACTCACCCTAACTGTAAAGTAATTGTGTGTTTTGAGACTATAAATATCCCTTGGAGAAAAGCCTTGTTTGACCGTTTAAACTCGAGTGAGCGATCCAGGATTCAGATCTGGTTTCTGTAAAGCCACAGATGGGAAACCAGATCTGAATCCTGGACTGCCTACTAGAGAATTCTTCGATTCTGCTTTTTT

How the values were obtained:
[1] = test system: mi405 mature sequence; assay: QPCR of mature mi405 (standard TaqMan cDNA synthesis) in HEK293 cells; type: cell-based, human; details: 24 h after transfection
Method: TaqMan Gene Expression Assay. QRT-PCR was carried out to quantify the expression of pri-mir-675, mir-675-5p and mi405 using TaqMan probes (ThermoFisher Scientific). Experiments were started by eliminating genomic DNA from the RNA preparations, and then cDNA was generated using the High-Capacity cDNA Reverse Transcription Kit (Applied Biosystems) following manufacturer's instructions. Within the same cDNA reaction, 1×RT random hexamer primers were used to generate the cDNA for RPL13A, used as a reference gene, and for pri-mir-675. To generate the cDNA for mir-675, the RT mir-675 reverse primer provided by ThermoFisher Scientific was used. For mi405, the mi405 qPCR protocol was done as it was previously described [Wallace et al., Mol. Ther. Methods Clin. Dev. 8: 121-30 (2018)]. To quantify mir-675 and mi405 levels, RNA was extracted using the total RNA protocol for the mirVana miRNA Isolation Kit (Ambion) from HEK293 cells. cDNA was generated using the High-Capacity cDNA Reverse Transcription Kit (Applied Biosystems) using a mix of random hexamer primers and specific reverse primer for pri-mir-675 and mir-675-5p. For mi405, 200 nM of the stem-loop forming primer (5′-[…]-3′) (SEQ ID NO: 144) was also used for the RT step. A custom TaqMan assay (Applied Biosystems) including 1.5 μM of Forward primer (5′-[…]-3′) (SEQ ID NO: 145), 0.7 μM of Reverse primer (5′-GTGCAGGGTCCGAGGT-3′) (SEQ ID NO: 146), and 0.2 μM of mi405 probe (5′-6FAM-ATACGACGTCCAGGAT-3′) (SEQ ID NO: 147) was then run using the CFX Connect Real Time system apparatus (Bio-Rad). RPL13A (Mm02526700_g1; Applied Biosystems) served as the reference gene. The TaqMan gene expression assay consisted of using the TaqMan Gene Expression Master mix and TaqMan probes purchased from ThermoFisher Scientific. 1× of probe was mixed with 1× of the TaqMan Gene Expression Master mix (ThermoFisher Scientific), and with 20 ng of cDNA. The mir-675- and mi405-specific primers and probes were designed to quantify only the mir-675-5p and mi405 mature sequence (see TaqMan Gene Expression Master mix protocol).
Apart from the effect on the inhibition efficiency of mi405, the effect of the flanking sequences on the expression of the miRNA also was tested. Therefore, the expression of the processed mature mi405 sequences was quantified using the standard and advanced TaqMan cDNA synthesis reaction. In the former reaction, a reverse primer detects the mature mi405 sequence following a stem-loop primer-based small RNA detection principle (ThermoFisher Scientific) (Jung et al., RNA (2013) 19: 1-10). The amplification and quantification steps were then performed using a standard TaqMan probe specific to mi405 that base pairs at the junction between the mi405 mature sequence and the reverse primer sequence (FIG. 6A). […] In the TaqMan advanced cDNA synthesis reaction, the mature sequence is extended through ligation of an adaptor sequence at the 5′ end and through the enzymatic addition of a polyA tail at the 3′ end of the mature mi405 sequence. The amplification and quantification steps were then performed using a TaqMan advanced probe specific to mi405 that normally base pairs with the 3′ end of the mature miRNA and with part of the adaptor sequence. Here, an additional TaqMan advanced probe (embedded probe) that only base pairs with the mature sequence of mi405 (FIG. 6B) was used. As a result, following TaqMan advanced cDNA synthesis reaction, droplet digital PCR (ddPCR) was performed to quantify mi405, mi405F, mi405B, mi405C, mi405G and mi405H expression levels. For this, TaqMan advanced embedded and overlapped mi405 probes (FIG. 6B) were used.

[2] = test system: DUX4-induced muscle toxicity; assay: mi405 constructs (scAAV6) co-injected with AAV.CMV.DUX4-FL in mouse TA, H&E; type: in vivo, mouse (C57BL/6); details: scAAV6, 5e09 DRP co-injected with 5e09 DRP AAV.CMV.DUX4-FL, 8 weeks
Method: AAV Vector Delivery to Mice. (See also FIGS. 15A-B and 32A-B.) For determining bioactivity, 6- to 9-week-old C57BL/6 male and female mice received direct 35 μL IM injections into the TA. Mice received adeno-associated virus scAAV6.CMV.DUX4-FL at 5×10^9 DNase-resistant particles (DRP) co-injected with scAAV6.CMV.eGFP at 1×10^10 DRP, and a contralateral co-injection of scAAV6.CMV.DUX4-FL at 1×10^9 DRP or 5×10^9 DRP and scAAV6.U6.mir-675 at 5×10^10 DRP. To test toxicity of mir-675, the tibialis anterior (TA) was intramuscularly injected with increasing doses of scAAV6.U6.mir-675 at 5×10^10 DRP and 1×10^11 DRP, and injected contralateral TA with saline. To test mi405 toxicity, the TA was intramuscularly injected with 5×10^8 DRP, 5×10^9 DRP and 5×10^10 DRP of scAAV6.U6.mi405F, scAAV6.U6.mi405G or scAAV6.U6.mi405H and injected contralateral TA with saline. To test mi405 inhibition efficiency, the TA was co-injected with scAAV6.CMV.DUX4-FL at 5×10^9 DRP and scAAV6.U6.mi405F, G or H at 5×10^8 DRP, 5×10^9 DRP or 5×10^10 DRP. For this, a contralateral injection of either scAAV6.U6.mi405F, G or H or of scAAV6.CMV.DUX4-FL at 5×10^9 DRP was carried out. For mi405, all injections were compared to scAAV6.U6.mi405. Muscles were harvested at 2, 4 or 8 weeks post-injection. All animal studies were performed according to the NIH Guide for the Care and Use of Laboratory Animals.
Histology. (See also FIGS. 15A-B and 32A-B.) Dissected TA muscles were placed in O.C.T. Compound (Tissue-Tek) and frozen on liquid nitrogen-cooled isopentane. Cryosections were cut at 10 μm and then stained with H&E following standard protocols [Harper et al., Nat Med (2002) 8(3):253-61].
U6.mi405, U6.mi405F, U6.mi405G and U6.mi405H were co-injected using scAAV6 with AAV.CMV.DUX4-FL at equivalent doses (5e09 DNase Resistant Particles (DRP)) in the TA of C57BL/6 mice. This experiment was performed to investigate the efficiency of the four mi405 constructs to eliminate DUX4-induced muscle toxicity in vivo at doses equivalent to that of AAV.CMV.DUX4-FL. Previously, Wallace et al. [Wallace et al, Ann. Neurol. […]

Molecule	reduction of mature mi405 sequence expression relative to U6.mi405 ([1]; normalized to RPL13A) [%]	efficiency in eliminating DUX4-induced muscle toxicity compared to mi405 [2]	levels of mature mi405 sequence compared to U6.mi405 [1]
B1	85±5	no enhanced inhibition efficiency in vivo when compared to mi405	
B2		more efficient than mi405	greater or higher with the difference not being statistically significant
B3		more efficient than mi405	greater or higher with the difference not being statistically significant
